# Data published in publication PMC9537594.
# Read-outs that look alike come from different tables or passages of the source.
# What was measured:
# [1] = target: WT CA nanotubes (pre-formed tubular assemblies of wild-type HIV-1 CA, hexameric lattices) (HIV-1); assay: co-sedimentation; recombinant GST proteins added to pre-formed WT CA nanotubes, 30 min at 4 °C, 21,000 g for 5 min, pellets washed three times; SDS-PAGE or immunoblot; details: scale: GST-CPSF6(LCR-FG-LCR) molecules per CA hexamer
# [2] = target: isolated native HIV-1 cores (HIV-1); assay: pull-down
# [3] = target: isolated native HIV-1 cores (HIV-1); assay: pull-down; remark: listed apart in the source
# [4] = target: Cross-linked His-CAhex: disulfide-stabilized hexamer of 6-His-CA(A14C/E45C/W184A/M185A) (HIV-1); assay: SPR; Reichert 4-SPR; cross-linked His-CAhex immobilised on an NTA chip via the C-terminal His-tag; peptides 3.9 μM to 2 mM; 0.01 M HEPES pH 7.4, 0.15 M NaCl, 0.05% v/v Surfactant P20; simple kinetic model
substance,measurement,setting,value
GST-CPSF6_(261-358)(LCR-FG-LCR) (from UniProt Q16630-2 261-358) (domain or fragment),stoichiometry N,[1],2.4
GST-CPSF6261-358(LCR-FG-LCR) (domain or fragment),Kd,[2],0.89 µM
same,Kd,[3],0.81 µM
NUP153_(1409-1423) 15-mer FG peptide (from UniProt P49790 1409-1423),Kd,[4],131 µM
